Data on 2 molecules can be found in publication doi:10.1101/2020.08.24.265033, “Dipeptidyl peptidase 9 triggers BRCA2 degradation by the N-degron pathway to promote DNA-damage repair” (bioRxiv, 2020).

In the test the target is T1, Human recombinant DPP9 (dipeptidyl peptidase 9), His-tagged (human, UniProt Q86TI2 1-863).
T1 construct: Dipeptidyl peptidase 9, human, recombinant; Held on a Ni chip by its His tag in SPR; used in solution in the pull-down; also called purified DPP9; His-tagged DPP9; source: Sf9 cells, purified essentially as described in Pilla et al. 2012
T1 sequence (Q86TI2 whole entry): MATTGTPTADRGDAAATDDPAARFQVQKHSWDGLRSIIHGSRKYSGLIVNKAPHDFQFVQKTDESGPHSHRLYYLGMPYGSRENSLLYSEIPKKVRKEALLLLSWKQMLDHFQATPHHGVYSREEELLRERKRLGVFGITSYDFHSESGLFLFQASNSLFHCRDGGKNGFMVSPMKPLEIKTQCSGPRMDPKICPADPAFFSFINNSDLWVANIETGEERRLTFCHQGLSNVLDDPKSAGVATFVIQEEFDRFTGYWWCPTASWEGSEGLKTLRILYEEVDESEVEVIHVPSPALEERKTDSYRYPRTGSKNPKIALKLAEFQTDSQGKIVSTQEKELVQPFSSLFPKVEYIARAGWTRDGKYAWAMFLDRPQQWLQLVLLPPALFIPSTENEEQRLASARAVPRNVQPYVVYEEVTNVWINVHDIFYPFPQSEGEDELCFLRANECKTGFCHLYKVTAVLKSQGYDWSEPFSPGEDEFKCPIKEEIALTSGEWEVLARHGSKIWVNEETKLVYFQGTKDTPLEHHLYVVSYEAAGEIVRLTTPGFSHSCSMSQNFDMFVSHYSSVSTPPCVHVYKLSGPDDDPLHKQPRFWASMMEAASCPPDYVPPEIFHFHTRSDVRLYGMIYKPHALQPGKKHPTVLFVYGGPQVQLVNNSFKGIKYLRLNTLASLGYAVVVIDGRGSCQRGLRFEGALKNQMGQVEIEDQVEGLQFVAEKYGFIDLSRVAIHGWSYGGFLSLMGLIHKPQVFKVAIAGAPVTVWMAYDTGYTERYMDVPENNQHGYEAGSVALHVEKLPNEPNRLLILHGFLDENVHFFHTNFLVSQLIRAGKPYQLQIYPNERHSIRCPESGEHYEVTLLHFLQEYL
In words: SPR; His-tagged DPP9 immobilised on a Ni-loaded NiHC1000m chip; serial dilution of BRCA2 peptides injected; 20 mM HEPES pH 7.4, 150 mM NaCl, 50 µM EDTA, 0.005 % TWEEN-20; 20°C; equilibrium binding analysis. The note with it: both partners purified.

B1: BRCA2_(3-40) synthetic peptide (truncated, lacking Met1-Pro2) (peptide, UniProt P51587 3-40, looked up)
peptide: IGSKERPTFFEIFKTRCNKADLGPISLNWFEELSSEAP
notes: BRCA2, human, residues 3-40; also called truncated BRCA2_(3-40) peptide; source: synthetic peptide
As to B1, the Kd was found to be 75.3 ± 4.8 µM.

B2: BRCA2_(1-40) synthetic peptide (first forty amino acids of BRCA2) (peptide, UniProt P51587 1-40, looked up)
peptide: MPIGSKERPTFFEIFKTRCNKADLGPISLNWFEELSSEAP
notes: BRCA2, human, residues 1-40; also called BRCA2_(1-40) N-terminal peptide; BRAC2_(1-40) peptide; source: synthetic peptide
For the molecule B2, the Kd came out at 16.8 ± 0.7 µM.
